Source: FireProtDB (doi:10.1021/bi0115028)
Values joined by “and” are separate entries in the source; they are usually repeats but may differ in a detail not shown here. Equal values may be shown once.

Details: Bos taurus, 25 °C, NaCl 2 M, whole UniProt chain shown
[1] = pH 2.3, GdnHCl, Absorbance, H3PO4, NaOH
[2] = pH 2.3, GdnHCl, CD, H3PO4, NaOH
[3] = pH 6.2, GdnHCl, Absorbance, KH2PO4-Na2HPO4
[4] = pH 6.2, GdnHCl, CD, KH2PO4-Na2HPO4
[5] = pH 6.2, Urea, Absorbance, KH2PO4-Na2HPO4
[6] = pH 6.2, Urea, CD, KH2PO4-Na2HPO4
[7] = pH 8.3, GdnHCl, Absorbance, KHPO4-Na2HPO4/NaOH
[8] = pH 8.3, GdnHCl, CD, KHPO4-Na2HPO4/NaOH
[9] = pH 8.3, Urea, Absorbance, KHPO4-Na2HPO4/NaOH
[10] = pH 8.3, Urea, CD, KHPO4-Na2HPO4/NaOH

B1: Beta-lactoglobulin wild type, P02754 (protein)
chain: MKCLLLALALTCGAQALIVTQTMKGLDIQKVAGTWYSLAMAASDISLLDAQSAPLRVYVEELKPTPEGDLEILLQKWENGECAQKKIIAEKTKIPAVFKIDALNENKVLVLDTDYKKYLLFCMENSAEPEQSLACQCLVRTPEVDDEALEKFDKALKALPMHIRLSFNPTQLEEQCHI
denaturant m value [1]: 3.9 kcal/mol/M
denaturant midpoint (higher = more stable) [1]: 3.4 M
unfolding free energy [1]: 13.4 kcal/mol
denaturant m value [2]: 3.8 kcal/mol/M and 4.4 kcal/mol/M
denaturant midpoint (higher = more stable) [2]: 3.5 M
unfolding free energy [2]: 13 kcal/mol and 15.2 kcal/mol
denaturant m value [3]: 2.5 kcal/mol/M
denaturant midpoint (higher = more stable) [3]: 2.7 M
unfolding free energy [3]: 8.4 kcal/mol
denaturant m value [4]: 3.3 kcal/mol/M and 2.5 kcal/mol/M
denaturant midpoint (higher = more stable) [4]: 2.9 M and 2.7 M
unfolding free energy [4]: 9.5 kcal/mol and 6.9 kcal/mol
denaturant m value [5]: 0.9 kcal/mol/M
denaturant midpoint (higher = more stable) [5]: 4.1 M
unfolding free energy [5]: 3.7 kcal/mol
denaturant m value [6]: 0.7 kcal/mol/M and 0.6 kcal/mol/M
denaturant midpoint (higher = more stable) [6]: 3.5 M and 2.1 M
unfolding free energy [6]: 2.3 kcal/mol and 1.4 kcal/mol
denaturant m value [7]: 3.2 kcal/mol/M
denaturant midpoint (higher = more stable) [7]: 2.3 M
unfolding free energy [7]: 7.6 kcal/mol
denaturant m value [8]: 3 kcal/mol/M and 3.4 kcal/mol/M
denaturant midpoint (higher = more stable) [8]: 2 M
unfolding free energy [8]: 5.9 kcal/mol and 6.9 kcal/mol
denaturant m value [9]: 1.1 kcal/mol/M
denaturant midpoint (higher = more stable) [9]: 3.5 M
unfolding free energy [9]: 4 kcal/mol
denaturant m value [10]: 1.5 kcal/mol/M and 1.4 kcal/mol/M
denaturant midpoint (higher = more stable) [10]: 4.4 M and 3.6 M
unfolding free energy [10]: 6.4 kcal/mol and 5 kcal/mol
